Reference: article PMC2528193
Where “and” joins values, the source holds several entries; their conditions need not be identical. Equal values may be shown once.

Key:
[1] = tested on: PfHUp (processed PfHU, bacterial histone-like protein) (Plasmodium falciparum); test: EMSA
[2] = target: predicted processed PfHU (P. falciparum bacterial histone-like protein), recombinant (P. falciparum); test: cross-linking
[3] = target: predicted processed PfHU (P. falciparum bacterial histone-like protein), recombinant (P. falciparum); test: SDS-resistant dimer on SDS-PAGE with anti-His Western blot

Row | Substance | Kd [1] | stoichiometry N [2] | stoichiometry N [3]
1 | 30 bp probe | 62.7 nM | – | –
2 | predicted processed PfHU (P. falciparum bacterial histone-like protein), recombinant (domain or fragment) | – | 2 and 4 | 2
